From the Human Domainome abundance scans (Beltran et al. 2025)

B1: Membrane-associated guanylate kinase, WW and PDZ domain-containing protein 3, residues 287 to 329; numbered along this chain, Q5TCQ9 (parent)
chain: MRDETLEPLPKNWEMAYTDTGMIYFIDHNTKTTTWLDPRLCKK

Variants of: B1
Assay: abundance fitness (aPCA) (normalised: wild type 0, dead -1); higher = more abundant; growth selection in yeast, the domain comes from the species named
Conditions: Homo sapiens

Abundance fitness, by site and new letter:
M22: D 0.084; R -0.043; C -0.028; Y 0.004; L -0.043; E 0.144; A 0.081; G 0.006; Q 0.096; T -0.005; H -0.137; P -0.62; K 0.075; V -0.025; S 0.199
Y24: G -0.774; E -0.53; Q -0.582; F -0.146; H -0.574; D -0.524; K -0.668; V -0.567; I -0.678; L -0.61; W -0.579; T -0.638; A -0.723; R -0.598; S -0.708; C -0.652
G21: Q -0.222; V -1.18; S -0.487; P -0.682; W -0.782; E -0.215; D -0.241; R -0.237; L -0.67; A -0.312; T -0.689; K -0.172; M -0.46
D3: W -0.336; R -0.127; Y -0.367; T -0.12; M -0.188; Q -0.074; N -0.148; P -0.072; S -0.067
E14: M -0.346; R -0.273; F -1.06; S -0.12; P -0.868; I -0.39; Q -0.087; G -0.224; L -0.456; A -0.132; W -0.834; V -0.346; Y -0.368; N -0.372; H -0.429; K -0.262
T5: F -0.384; A -0.04; V -0.064; M 0.251; C -0.123; P -0.023; E -0.046; K 0.072; Y -0.19; D -0.02; Q 0.012; H -0.059; G -0.05; W -0.303; R -0.064; N 0.125
Y17: S -0.024; Q -0.025; G -0.199; F -0.043; W -0.043; H -0.121; V 0; L -0.034; A 0.026; E 0.031; P -0.376; N -0.194; R 0.054; K -0.03; D -0.323; C -0.052
W13: G -0.696; D -0.773; V -0.303; L -0.635; F -0.221; P -0.715; S -0.698; A -0.668; T -0.475; M -0.398; I -0.431; C -0.636; K -0.67; R -0.634; E -0.683; Q -0.729
D19: I -0.536; P -0.07; Q -0.055; S -0.019; K -0.034; R -0.091; T -0.067; E -0.001; Y -0.173; C -0.122; A -0.047
P8: T -0.162; R -0.112; W -0.367; G -0.13; M -0.255; Q -0.15; E -0.078; K -0.069; V -0.187; D -0.087; Y -0.395; A -0.065; S -0.325; C -0.332
L9: S -0.621; Q -0.566; W -0.492; E -0.566; R -0.639; V -0.337; M -0.106; C -0.721; K -0.683; A -0.691; G -0.681
L6: S 0.034; M -0.067; W -0.108; F -0.13; I 0.141; T -0.018; P -0.068; G 0.001; Y -0.156; D -0.086; E -0.029; A 0.016; Q 0.103; K -0.128
